Tests used:
Format in all cases: cell-based
[1] = tested on: MKN45 gastric cancer cell line with acquired resistance against L3-1Y/IgG2 antibody; test: Cell viability, CellTiter Glo, resistance-acquired cell line
Experimental: To see whether the treatment RAF1 siRNA can overcome resistance acquired due to the repetitive treatment of an antibody, tests were carried out using MKN45 gastric cancer cell line which had been treated by L3-1Y/IgG2 antibody for 3 months or longer and acquired resistance against it. The resistance-acquired MKN45 gastric cancer cell line was prepared as follows: MKN45 cells (JCRB, JCRB0254) were treated with L3-1Y/IgG2 antibody in amounts being increased over 3 months or longer. The amount of L3-1Y/IgG2 antibody to be treated started from its initial treatment concentration of 1 ug/ml and was increased up to 10 ug/ml until resistance occurred. To confirm the acquisition of L3-1Y/IgG2 antibody resistance, the resistance-acquired clones were treated or not treated with L3-1Y/IgG2 antibody and then incubated, followed by CTG assays.
As a control group, All Negative control siRNA (Qiagen, cat. no. 1027281) was used, and as a target siRNA, a mixture of two kinds of siRNAs (see Table 7) that had effects during the screening was used. […]
(§1) 5000 cells of MKN45 cells which have acquired resistance against L3-1Y/IgG2 antibody were seeded onto a 96-well plate, and 24 hours after, the plate was treated with L3-1Y/IgG2 antibody and an ITGB3 inhibitor, cilengitide (Merck KGaA, EMD 121974). 72 hours later after the treatment, a change in the number of cells was measured using CellTiter Glo assay. The MKN45 cells which have acquired resistance against L3-1Y/IgG2 antibody were prepared referring to Example 4.3. Cilengitide was treated at a fixed concentration of 10 uM, and the L3-1Y/IgG2 antibody was treated by ⅕ dilution each time starting from 2 ug/ml. For comparison, the same test was conducted using L3-1Y/IgG2 antibody alone.
as §1, with “AKT” for “ITGB3”, “MK-2206” for “cilengitide”, “& Co Inc).” for “KGaA, EMD 121974).”, “MK-2206” for “Cilengitide”, “5” for “10”
To verify whether or not the resistance acquired by repetitive administration of anti-c-Met antibody can be overcome by BCL2L1 inhibition, L3-1Y/IgG2 antibody resistance acquired MKN45 cells, where the resistance against L3-1Y/IgG2 antibody is acquired by treating MKN45 gastric cancer cells (JCRB, JCRB0254) with the L3-1Y/IgG2 antibody for at least 3 months, were used. The L3-1Y/IgG2 antibody resistance acquired MKN45 gastric cancer cells were prepared referring to Example 4.3. […]

[2] = tested on: HT29 colorectal cancer cell line; test: Cell viability, CellTiter Glo, combination with L3-1Y/IgG2 antibody; conditions: L3-1Y/IgG2 antibody alone (negative control siRNA), 0-2 ug/ml, 72 h
Experimental: The efficacy of the combination administration of FGFR3 siRNA and L3-1Y/IgG2 antibody was examined in a colorectal cancer cell line on which the anti-c-Met antibody has no effects. For this, HT29 (ATCC, HTB-38) cells were used. As a control group, All Negative control siRNA (Qiagen, cat. no. 1027281) was used, and as a target siRNA, a mixture of two kinds of siRNAs (see Table 7) that had effects during the screening was used. Transfection was carried out by the same procedures as Example 3.1 and after 24 hours, the cultured cells were treated with L3-1Y/IgG2 antibody at 0 ug/ml, 0.016 ug/ml, 0.08 ug/ml, 0.4 ug/ml, and 2 ug/ml, respectively.
72 hours later after the treatment, 100 uL of CellTiter Glo solution (Promega, G7572) was added to each well, which was allowed to stay at a room temperature for 30 min. The number of cells was counted via luminescence signals, which were recorded using Envision 2104 Multi-label Reader (Perkin Elmer).

[3] = tested on: HCC1954 breast cancer cells; test: as above; conditions: L3-1Y/IgG2 antibody alone (negative control siRNA)
Experimental: The efficacy of the combination administration of ITGB3 siRNA and L3-1Y/IgG2 antibody was examined in a breast cancer cell line on which the anti-c-Met antibody alone has no effects. For this, HCC1806 (ATCC, CRL-2335) and HCC1954 (ATCC, CRL-2338) cells were used.
As a control group, All Negative control siRNA (Qiagen, cat. no. 1027281) was used, and as a target siRNA, a mixture of two kinds of siRNAs (see Table 7) that had effects during the screening was used. Transfection was carried out by the same procedures as Example 3.1 and after 24 hours, the cultured cells were treated with L3-1Y/IgG2 antibody at 0 ug/ml, 0.016 ug/ml, 0.08 ug/ml, 0.4 ug/ml, or 2 ug/ml. 72 hours later after the treatment, 100 uL of CellTiter Glo solution (Promega, G7572) was added to each well, which was allowed to stay at a room temperature for 30 min. The number of cells was counted via luminescence signals, which were recorded using Envision 2104 Multi-label Reader (Perkin Elmer).

[4] = tested on: EBC1 lung cancer cell line; test: Cell viability, CellTiter Blue, combination with L3-1Y/IgG2 antibody; conditions: for concentration at which the L3-1Y/IgG2 antibody showed the maximized efficacy: 5 days
Experimental: The efficacy of the combination administration of RAF1 siRNA and L3-1Y/IgG2 antibody was examined in lung cancer cell line on which the anti-c-Met antibody has an effect. For this, EBC1 (JCRB, JCRB0820) cells were used. As a control group, All Negative control siRNA (Qiagen, cat. no. 1027281) was used, and as a target siRNA, a mixture of two kinds of siRNAs (see Table 7) that had effects during the screening was used. Transfection was carried out by the same procedures as Example 3.1 and after 24 hours, the cultured cells were treated with L3-1Y/IgG2 antibody at 0 ug/ml, 0.016 ug/ml, 0.08 ug/ml, 0.4 ug/ml, or 2 ug/ml. After 5 days of treatment, for cell number counting, 20 ul of a diluting solution of CellTiter Blue (Promega, G8081) and HBSS at 1:1 was added to each well, which was incubated at 37° C. for 4 hours. Then, the number of cells was counted via fluorescence signals (560/590 nm), which were measured using Envision 2104 Multi-label Reader (Perkin Elmer).

B1: L3-1Y/IgG2: anti-c-Met antibody: huAbF46-H4-A1 heavy chain variable region, human IgG2 hinge and constant region, kappa light chain with H36Y (antibody)
heavy: EVQLVESGGGLVQPGGSLRLSCAASGFTFTDYYMSWVRQAPGKGLEWLGFIRNKANGYTTEYSASVKGRFTISRDNSKNTLYLQMNSLRAEDTAVYYCARDNWFAYWGQGTLVTVSSASTKGPSVFPLAPCSRSTSESTAALGCLVKDYFPEPVTVSWNSGALTSGVHTFPAVLQSSGLYSLSSVVTVPSSNFGTQTYTCNVDHKPSNTKVDKTVERKCCVECPPCPAPPVAGPSVFLFPPKPKDTLMISRTPEVTCVVVDVSHEDPEVQFNWYVDGVEVHNAKTKPREEQFNSTFRVVSVLTVVHQDWLNGKEYKCKVSNKGLPAPIEKTISKTKGQPREPQVYTLPPSREEMTKNQVSLTCLVKGFYPSDIAVEWESNGQPENNYKTTPPMLDSDGSFFLYSKLTVDKSRWQQGNVFSCSVMHEALHNHYTQKSLSLSPGK
light: DIQMTQSPSSLSASVGDRVTITCKSSQSLLASGNQNNYLAWYQQKPGKAPKMLIIWASTRVSGVPSRFSGSGSGTDFTLTISSLQPEDFATYYCQQSYSRPYTFGQGTKVEIKRTVAAPSVFIFPPSDEQLKSGTASVVCLLNNFYPREAKVQWKVDNALQSGNSQESVTEQDSKDSTYSLSSTLTLSKADYEKHKVYACEVTHQGLSSPVTKSFNRGEC
[1]; L3-1Y/IgG2 antibody alone (1/5 dilutions from 2 ug/ml), 72 h
  growth inhibitory effect (cell viability): did not occur
[1]; L3-1Y/IgG2 antibody alone (negative control siRNA)
  cancer cell growth inhibitory efficacy (cell viability): did not occur
[2]
  cancer cell growth inhibitory efficacy (cell viability): did not occur
[3]
  cancer cell growth inhibitory efficacy (cell viability): did not occur
[4]; co-treated with RAF1 siRNA
  concentration at which the L3-1Y/IgG2 antibody showed the maximized efficacy: 0.016 µg/mL
[4]; with versus without RAF1 siRNA
  decrease of the concentration of maximized efficacy by RAF1 siRNA co-treatment: ⅕
[4]; without RAF1 siRNA (negative control siRNA)
  concentration at which the L3-1Y/IgG2 antibody showed the maximized efficacy: 0.08 µg/mL

From patent publication US9567641B2, “Combination therapy for the treatment of cancer using an anti-C-met antibody” (SAMSUNG ELECTRONICS CO., LTD., priority 2013, dated 2017)
